Results from patent publication US20250297032A1 (CONCEPT TO MEDICINE BIOTECH, published 2025).

T1: human FAPα on CHO-K1-hFAPα cells (human, UniProt Q12884 1-760)
T1 construct: whole, on cells; also called cell-surface FAPα
T1 sequence (looked up): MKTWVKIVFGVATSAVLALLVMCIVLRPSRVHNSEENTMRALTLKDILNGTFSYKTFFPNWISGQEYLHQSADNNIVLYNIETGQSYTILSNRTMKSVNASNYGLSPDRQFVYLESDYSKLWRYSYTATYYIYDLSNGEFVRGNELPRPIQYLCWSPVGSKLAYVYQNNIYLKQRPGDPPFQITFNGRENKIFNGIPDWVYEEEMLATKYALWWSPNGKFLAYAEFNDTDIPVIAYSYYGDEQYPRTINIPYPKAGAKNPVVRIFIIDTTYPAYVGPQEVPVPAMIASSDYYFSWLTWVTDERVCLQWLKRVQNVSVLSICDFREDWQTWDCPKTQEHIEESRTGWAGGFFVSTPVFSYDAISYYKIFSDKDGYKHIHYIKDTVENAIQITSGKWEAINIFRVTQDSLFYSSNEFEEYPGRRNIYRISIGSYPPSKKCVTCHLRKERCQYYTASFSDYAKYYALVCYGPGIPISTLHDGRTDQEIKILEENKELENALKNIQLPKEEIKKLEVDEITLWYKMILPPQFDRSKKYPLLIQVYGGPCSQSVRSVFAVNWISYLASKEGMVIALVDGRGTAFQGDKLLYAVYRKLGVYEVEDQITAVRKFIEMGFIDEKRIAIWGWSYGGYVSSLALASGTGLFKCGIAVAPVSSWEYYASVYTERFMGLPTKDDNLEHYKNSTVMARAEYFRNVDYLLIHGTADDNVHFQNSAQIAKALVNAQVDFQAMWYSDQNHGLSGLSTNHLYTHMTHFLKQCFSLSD

T2: human FAPα-His tag (Sino biological) (human, UniProt Q12884 26-760)
T2 construct: Bought protein; also called human FAPα-His protein; not shown: His tag
T2 sequence (looked up): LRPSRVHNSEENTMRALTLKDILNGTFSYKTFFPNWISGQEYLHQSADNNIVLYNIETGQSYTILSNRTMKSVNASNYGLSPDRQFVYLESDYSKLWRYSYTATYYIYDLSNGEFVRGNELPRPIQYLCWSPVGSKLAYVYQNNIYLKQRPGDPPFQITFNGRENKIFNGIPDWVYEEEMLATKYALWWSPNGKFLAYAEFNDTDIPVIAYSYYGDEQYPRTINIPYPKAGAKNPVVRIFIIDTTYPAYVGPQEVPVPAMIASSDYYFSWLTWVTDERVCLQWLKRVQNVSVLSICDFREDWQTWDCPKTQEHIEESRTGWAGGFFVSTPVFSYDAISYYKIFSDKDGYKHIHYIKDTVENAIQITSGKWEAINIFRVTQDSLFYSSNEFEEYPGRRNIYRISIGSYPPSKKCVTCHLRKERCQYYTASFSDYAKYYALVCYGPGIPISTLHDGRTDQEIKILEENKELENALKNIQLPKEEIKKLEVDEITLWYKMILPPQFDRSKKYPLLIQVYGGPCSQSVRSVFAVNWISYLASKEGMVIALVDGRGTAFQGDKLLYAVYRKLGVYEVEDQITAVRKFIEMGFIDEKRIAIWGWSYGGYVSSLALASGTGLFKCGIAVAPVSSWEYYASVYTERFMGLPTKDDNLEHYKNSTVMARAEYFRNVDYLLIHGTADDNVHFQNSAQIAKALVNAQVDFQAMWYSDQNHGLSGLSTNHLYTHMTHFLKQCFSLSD

B1: G14 (antibody, V domains shown)
VH: QVQLLESGGGVVQPGRSLRLSCAASGFTFSSYAMHWVRQAPGKGLEWVAFISHDGNRNSYADSVRGRFTISRDNSKNTLYLQMNSLRAEDTAVYYCARDLGYYNGFSYWGQGTLVTVSA
VL: DIVMTQSPSSVSASVGDRVTITCRASQGISSWLAWYQQKPGKAPKLLIYAASSLQSGVPSRFSGSGSGTDFTLTISSLQPEDFATYYCQQANSFPPTFGPGTKVDIK
notes: Full human antibody from a Fab phage library; Tested as a mAb (detected with anti-human IgG, captured on Protein A); also called FAP-G14; FAP-G14-Bio (biotin-conjugated form)
B2: J40 (antibody, V domains shown)
VH: EVQLLESGGGLVQPGGSLRLSCAASGFTFSSYAMSWVRQAPGKGLEWVSAISGSGGSTYYADSVKGRFTISRDNSKNTLYLQMNSLRTDDTAVYYCARDLTTSTGWESWGQGTLVTVSA
VL: NIQMTQSPSSVSASVGDRVTITCRASQGISSWLAWYQQKPGKAPKLLIYAASSLQSGVPSRFSGSGSGTDFTLTISSLQPEDFATYYCQQANSFPPTFGQGTKLEIK
notes: Tested as a mAb; also called FAP-J40; FAP-J40-Bio (biotin-conjugated form)
B3: I30 (antibody, V domains shown)
VH: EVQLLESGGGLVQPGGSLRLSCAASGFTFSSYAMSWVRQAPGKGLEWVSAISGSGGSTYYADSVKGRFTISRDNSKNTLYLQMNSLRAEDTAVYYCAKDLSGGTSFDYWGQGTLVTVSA
VL: AIRLTQSPSSVSASVGDRVTITCRASQGISSWLAWYQQKPGKAPKLLIYAASSLQSGVPSRFSGSGSGTDFTLTISSLQPEDFATYYCQQANSFPPTFGGGTKVEIK
notes: Tested as a mAb; also called 130; FAP-I30
B4: I37 (antibody, V domains shown)
VH: QLQLVESGGGLVQPGGSLRLSCAASGFTFSSYAMSWVRQAPGKGLEWVSAISGSGGSTYYADSVKGRFTISRDNSKNTLYLQMNSLRAEDTAVYYCARDKPWGGSFDYWGQGTLVTVSA
VL: DIQLTQSPSSLSASVGDRVTITCRASQGISSWLAWYQQKPGKAPKLLIYAASSLQSGVPSRFSGSGSGTDFTLTISSLQPEDFATYYCQQANSFPVTFGPGTKVDIK
notes: Tested as a mAb; also called FAP-I37

Key:
[1] = target: T1, human FAPα on CHO-K1-hFAPα cells; test: flow cytometry on CHO-K1-hFAPα cells (MFI of PE); design: unit not given beside the values
Description: To evaluate the cell-based binding property to human FAPα, the tested antibodies were analyzed for their binding to CHO-K1-hFAPα by FACS. A total number of 1×10⁵ CHO-K1-hFAPα cells in each well were incubated with 4-fold serial diluted antibodies starting from 3 μg/ml for 30 minutes at 4° C. in FACS buffer. After wash by FACS buffer, PE conjugated-anti-human IgG antibody was added to each well and incubated at 4° C. for 30 minutes. After wash, MFI of PE was evaluated by MACSQuant Analyzer 16.

[2] = target: T2, human FAPα-His tag (Sino biological); test: competitive ELISA on coated human FAPα; competitor (detected): FAP-J40-Bio
Description: (§1) Briefly, microtiter plates were coated with human FAPα proteins at 0.5 μg/ml in PBS, 100 μl/well at 4° C. overnight, then blocked with 150 μl/well of 1% BSA. Serial dilutions of chimeric antibodies as well as biotin-conjugated reference mAb were added to each well and incubated for 1 hour at RT. The plates were washed with PBS/Tween and then incubate with streptavidin-HRP for 15 mins at RT. After washing, the plates were developed with TMB substrate and analyzed by spectrophotometer at OD 450 nm. According to the competition ability to reference mAbs (Benchmark, or “BMK”), all tested FAPα mAbs binds to the similar epitope as shown in Table 5.

[3] = target: T2, human FAPα-His tag (Sino biological); test: competitive ELISA on coated human FAPα; competitor (detected): FAPα (BMK)-Bio
Description: as §1

[4] = target: T2, human FAPα-His tag (Sino biological); test: SPR (Biacore T200), mAb captured on Protein A chip, human FAPα-His as analyte
Description: The binding of the tested antibodies to recombinant FAPα protein (human FAPα-his tag) was tested with Biacore using a capture method. The mAbs were captured using Protein A chip. A serial dilution of human FAPα-his tag protein was injected over captured antibody for 3 mins at a flow rate of 30 μl/min. The antigen was allowed to dissociate for 800s. All the experiments were carried out on a Biacore T200. Data analysis was carried out using the Biacore T200 evaluation software.

[5] = target: T2, human FAPα-His tag (Sino biological); test: competitive ELISA on coated human FAPα; competitor (detected): FAP-G52-Bio
Description: as §1

[6] = target: T2, human FAPα-His tag (Sino biological); test: competitive ELISA on coated human FAPα; competitor (detected): FAP-I38-Bio
Description: as §1

[7] = target: T2, human FAPα-His tag (Sino biological); test: competitive ELISA on coated human FAPα; biotinylated mAb alone, no competing Ab (row '0')
Description: as §1

[8] = target: T2, human FAPα-His tag (Sino biological); test: competitive ELISA on coated human FAPα; competitor (detected): FAP-I30-Bio
Description: as §1

Row | Binder | Cmax [1] | OD 450 nm [2] | OD 450 nm [3] | Kd [4] | koff [4] | kon [4] | OD 450 nm [5] | OD 450 nm [6] | OD 450 nm [7] | OD 450 nm [8]
1 | B1 | 515 | 0.293 OD 450 nm | 0.399 OD 450 nm | 0.522 nM | 6.24e-05 s⁻¹ | 120000 M⁻¹ s⁻¹ | 0.195 OD 450 nm | 0.658 OD 450 nm | 2.15 OD 450 nm | 0.241 OD 450 nm
2 | B2 | 381 | 0.261 OD 450 nm | 0.343 OD 450 nm | 1.01 nM | 7.31e-05 s⁻¹ | 72200 M⁻¹ s⁻¹ | 0.206 OD 450 nm | 0.527 OD 450 nm | 1.2 OD 450 nm | 0.218 OD 450 nm
3 | B3 | 455 | 0.16 OD 450 nm | 0.151 OD 450 nm | 0.454 nM | 6.2e-05 s⁻¹ | 137000 M⁻¹ s⁻¹ | 0.146 OD 450 nm | 0.324 OD 450 nm | 1.49 OD 450 nm | 0.143 OD 450 nm
4 | B4 | 465 | 0.314 OD 450 nm | 0.46 OD 450 nm | 0.855 nM | 0.000154 s⁻¹ | 180000 M⁻¹ s⁻¹ | 0.18 OD 450 nm | 0.703 OD 450 nm | 1.72 OD 450 nm | 0.239 OD 450 nm
